Measurements reported in patent publication US20110044980A1 (AbbVie / Abbott, published 2011).
Values belong to the binder of their own block, whether it stands above or below them.

Legend:
NKG2D [1] = biological target: T1, NKG2D (human, UniProt P26718 1-216); experiment: flow cytometry (FACSCalibur), activated NK cells, 10 ug/ml, R-PE GMFI on CD56+ live cells
T1 construct: whole, on cells; also called NKGD
T1 sequence (looked up): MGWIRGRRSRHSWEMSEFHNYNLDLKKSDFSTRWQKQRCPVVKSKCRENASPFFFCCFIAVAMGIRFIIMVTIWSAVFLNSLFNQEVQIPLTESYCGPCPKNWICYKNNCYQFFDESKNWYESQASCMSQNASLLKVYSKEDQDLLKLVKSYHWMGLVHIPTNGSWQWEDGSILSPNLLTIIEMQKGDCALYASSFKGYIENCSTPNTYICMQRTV

NKG2D [2] = biological target: T1, NKG2D; experiment: flow cytometry (FACSCanto), cells carrying the target (line not given), 2 ug/mL

FACS Geometric Mean N-terminal (NKG2D [1]): 28.3
B1: DVD1054 (bispecific antibody)
VH: QVQLVESGGGLVKPGGSLRLSCAASGFTFSSYGMHWVRQAPGKGLEWVAFIRYDGSNKYYADSVKGRFTISRDNSKNTLYLQMNSLRAEDTAVYYCAKDRGLGDGTYFDYWGQGTTVTVSSASTKGPSVFPLAPQVQLQQSGAELVRPGSSVKISCKASGYAFSSYWMNWVKQRPGQGLEWIGQIWPGDGDTNYNGKFKGKATLTADESSSTAYMQLSSLASEDSAVYFCARRETTTVGRYYYAMDYWGQGTSVTVSS
VL: QSALTQPASVSGSPGQSITISCSGSSSNIGNNAVNWYQQLPGKAPKLLIYYDDLLPSGVSDRFSGSKSGTSAFLAISGLQSEDEADYYCAAWDDSLNGPVFGGGTKLTVLGQPKAAPSVTLFPPDILLTQTPASLAVSLGQRATISCKASQSVDYDGDSYLNWYQQIPGQPPKLLIYDASNLVSGIPPRFSGSGSGTDFTLNIHPVEKVDAATYHCQQSTEDPWTFGGGTKLEIKR
notes: DVD-Ig; dual variable domains only; Outer AB121, inner AB006; also called DVD1054H + DVD1054L

FACS Geometric Mean N-terminal (NKG2D [1]): 33.8
B2: DVD1214 (bispecific antibody)
VH: QVQLVESGGGLVKPGGSLRLSCAASGFTFSSYGMHWVRQAPGKGLEWVAFIRYDGSNKYYADSVKGRFTISRDNSKNTLYLQMNSLRAEDTAVYYCAKDRGLGDGTYFDYWGQGTTVTVSSASTKGPSVFPLAPQVQLQESGPGLVKPSQTLSLTCTVSGYSISSDFAWNWIRQPPGKGLEWMGYISYSGNTRYQPSLKSRITISRDTSKNQFFLKLNSVTAADTATYYCVTAGRGFPYWGQGTLVTVSS
VL: QSALTQPASVSGSPGQSITISCSGSSSNIGNNAVNWYQQLPGKAPKLLIYYDDLLPSGVSDRFSGSKSGTSAFLAISGLQSEDEADYYCAAWDDSLNGPVFGGGTKLTVLGQPKAAPSVTLFPPDIQMTQSPSSMSVSVGDRVTITCHSSQDINSNIGWLQQKPGKSFKGLIYHGTNLDDGVPSRFSGSGSGTDYTLTISSLQPEDFATYYCVQYAQFPWTFGGGTKLEIKR
notes: DVD-Ig; dual variable domains only; Outer AB121, inner AB064; also called DVD1214H + DVD1214L

FACS Geometric Mean C-terminal (NKG2D [1]): 21.2
B3: DVD1055 (bispecific antibody)
VH: QVQLQQSGAELVRPGSSVKISCKASGYAFSSYWMNWVKQRPGQGLEWIGQIWPGDGDTNYNGKFKGKATLTADESSSTAYMQLSSLASEDSAVYFCARRETTTVGRYYYAMDYWGQGTSVTVSSASTKGPSVFPLAPQVQLVESGGGLVKPGGSLRLSCAASGFTFSSYGMHWVRQAPGKGLEWVAFIRYDGSNKYYADSVKGRFTISRDNSKNTLYLQMNSLRAEDTAVYYCAKDRGLGDGTYFDYWGQGTTVTVSS
VL: DILLTQTPASLAVSLGQRATISCKASQSVDYDGDSYLNWYQQIPGQPPKLLIYDASNLVSGIPPRFSGSGSGTDFTLNIHPVEKVDAATYHCQQSTEDPWTFGGGTKLEIKRTVAAPSVFIFPPQSALTQPASVSGSPGQSITISCSGSSSNIGNNAVNWYQQLPGKAPKLLIYYDDLLPSGVSDRFSGSKSGTSAFLAISGLQSEDEADYYCAAWDDSLNGPVFGGGTKLTVLG
notes: DVD-Ig; dual variable domains only; Outer AB006, inner AB121; also called DVD1055H + DVD1055L

FACS Geometric Mean (NKG2D [1]): 31.1
FACS Geometric Mean (NKG2D [2]): 284
B4: AB121 (antibody, V domains shown)
VH: QVQLVESGGGLVKPGGSLRLSCAASGFTFSSYGMHWVRQAPGKGLEWVAFIRYDGSNKYYADSVKGRFTISRDNSKNTLYLQMNSLRAEDTAVYYCAKDRGLGDGTYFDYWGQGTTVTVSS
VL: QSALTQPASVSGSPGQSITISCSGSSSNIGNNAVNWYQQLPGKAPKLLIYYDDLLPSGVSDRFSGSKSGTSAFLAISGLQSEDEADYYCAAWDDSLNGPVFGGGTKLTVLG
notes: also called NKGD (KYK-2.0); anti-NKG2D parent antibody

FACS Geometric Mean C-terminal (NKG2D [1]): 31.7
B5: DVD1053 (bispecific antibody)
VH: QVQLQQPGAELVKPGASVKMSCKASGYTFTSYNMHWVKQTPGRGLEWIGAIYPGNGDTSYNQKFKGKATLTADKSSSTAYMQLSSLTSEDSAVYYCARSTYYGGDWYFNVWGAGTTVTVSAASTKGPSVFPLAPQVQLVESGGGLVKPGGSLRLSCAASGFTFSSYGMHWVRQAPGKGLEWVAFIRYDGSNKYYADSVKGRFTISRDNSKNTLYLQMNSLRAEDTAVYYCAKDRGLGDGTYFDYWGQGTTVTVSS
VL: QIVLSQSPAILSPSPGEKVTMTCRASSSVSYIHWFQQKPGSSPKPWIYATSNLASGVPVRFSGSGSGTSYSLTISRVEAEDAATYYCQQWTSNPPTFGGGTKLEIKRTVAAPSVFIFPPQSALTQPASVSGSPGQSITISCSGSSSNIGNNAVNWYQQLPGKAPKLLIYYDDLLPSGVSDRFSGSKSGTSAFLAISGLQSEDEADYYCAAWDDSLNGPVFGGGTKLTVLG
notes: DVD-Ig; dual variable domains only; Outer AB001, inner AB121; also called CD-20 / NKG2D DVD-Ig; DVD1053H + DVD1053L

FACS Geometric Mean C-terminal (NKG2D [1]): 31.7
B6: DVD1215 (bispecific antibody)
VH: QVQLQESGPGLVKPSQTLSLTCTVSGYSISSDFAWNWIRQPPGKGLEWMGYISYSGNTRYQPSLKSRITISRDTSKNQFFLKLNSVTAADTATYYCVTAGRGFPYWGQGTLVTVSSASTKGPSVFPLAPQVQLVESGGGLVKPGGSLRLSCAASGFTFSSYGMHWVRQAPGKGLEWVAFIRYDGSNKYYADSVKGRFTISRDNSKNTLYLQMNSLRAEDTAVYYCAKDRGLGDGTYFDYWGQGTTVTVSS
VL: DIQMTQSPSSMSVSVGDRVTITCHSSQDINSNIGWLQQKPGKSFKGLIYHGTNLDDGVPSRFSGSGSGTDYTLTISSLQPEDFATYYCVQYAQFPWTFGGGTKLEIKRTVAAPSVFIFPPQSALTQPASVSGSPGQSITISCSGSSSNIGNNAVNWYQQLPGKAPKLLIYYDDLLPSGVSDRFSGSKSGTSAFLAISGLQSEDEADYYCAAWDDSLNGPVFGGGTKLTVLG
notes: DVD-Ig; dual variable domains only; Outer AB064, inner AB121; also called DVD1215H + DVD1215L

FACS Geometric Mean N-terminal (NKG2D [1]): 36.4
B7: DVD1052 (bispecific antibody)
VH: QVQLVESGGGLVKPGGSLRLSCAASGFTFSSYGMHWVRQAPGKGLEWVAFIRYDGSNKYYADSVKGRFTISRDNSKNTLYLQMNSLRAEDTAVYYCAKDRGLGDGTYFDYWGQGTTVTVSSASTKGPSVFPLAPQVQLQQPGAELVKPGASVKMSCKASGYTFTSYNMHWVKQTPGRGLEWIGAIYPGNGDTSYNQKFKGKATLTADKSSSTAYMQLSSLTSEDSAVYYCARSTYYGGDWYFNVWGAGTTVTVSA
VL: QSALTQPASVSGSPGQSITISCSGSSSNIGNNAVNWYQQLPGKAPKLLIYYDDLLPSGVSDRFSGSKSGTSAFLAISGLQSEDEADYYCAAWDDSLNGPVFGGGTKLTVLGQPKAAPSVTLFPPQIVLSQSPAILSPSPGEKVTMTCRASSSVSYIHWFQQKPGSSPKPWIYATSNLASGVPVRFSGSGSGTSYSLTISRVEAEDAATYYCQQWTSNPPTFGGGTKLEIKR
notes: DVD-Ig; the entries are the dual variable domains (outer VD - linker - inner VD) without constant domains; Outer AB121, inner AB001; also called NKG2D / CD-20 DVD-Ig; DVD1052H + DVD1052L
